{"source": "patent US20100028995A1", "about": "“Tetranectin Trimerizing Polypeptides” (Anaphore, Inc., priority 2004, published 2010)", "key": {"[1]": {"assay": "Pharmacokinetic analysis of trimeric IL1Ra proteins in male Lewis rats after i.v. injection (plasma ELISA)", "type": "in vivo", "conditions": "for AUC / AUC protein/AUC KINERET ® / Half life / Half life protein/Half life KINERET ® / relative increase in AUC compared to KINERET: rat, in vivo, iv, 100 mg/kg; for half life after i.v. injection: single i.v. dose 100 mg/kg", "method": "The pharmacokinetic profile of these three constructs polypeptides were analysed in Lewis rats after intravenous (i.v.) injections. The profiles obtained were compared to the pharmacokinetic profile of KINERET® in the same experiment. The pharmacokinetic study was conducted using four male Lewis rats per group, and the constructs that were used were FL IL-1Ra, I10 IL-1Ra, V17 IL-1Ra and KINERET®, Single i.v. doses of 100 mg/kg were given to the animals. The test compound was dissolved in vehicle (4.4 mM NaCitrate, pH 6.5, 93.8 mM NaCl, 0.33 mM EDTA, 0.7 g TWEEN®-80) and administered through the tail vein (vena sacralis media) or the hind paw vein (vena saphena).\nBlood was then collected from four animals per time-point at baseline (zero hours) and 0.5, 1, 2, 4, 8, 12, 24, 48, 72 h post dosing. Blood samples of approximately 100 μl were collected from the tip of the tails in Microtainers™. Plasma was collected and transferred into polypropylene tubes. Plasma samples were then stored at <−70° C. until measurements were performed. Animals were then sacrificed by CO2 inhalation and the carcasses were discarded without pathological examination. The IL-1Ra compound levels and KINERET® levels in plasma were then determined by ELISA.\nThe average body weight of each rat was 250 grams. Assuming that the rat average blood volume was 16.5 mL a theoretical maximum initial concentration of the compounds of 1,500,000 ng/mL was calculated after i.v. injection. This starting level was used as starting value for the analysis. No observations of side effects or changes in animal well being were observed.\nFollowing blood sampling at the above indicated time points, an ELISA assay was used to measure the injected protein in the blood samples. Based on these ELISA results, area under the curve (AUC) was used as a measure of drug exposure and the plasma half life were calculated using standard software."}, "[2]": {"test_system": "IL-1 induction of IL-8 in U937 cells", "assay": "Inhibition of IL-1 induction of IL-8 in U937 cells", "type": "cell-based", "conditions": "based on several in vitro efficacy assays as well as Biacore assays", "method": "GG-TripV-IL-1ra (Trip V-IL1Ra), GG-TripK-IL-1ra (Trip K-IL1Ra), GG-TripT-IL-1ra (Trip T-IL1Ra) and CII-H6-GrB-GG-TripT-IL-1ra (Trip Q-IL1Ra) were further analysed for their ability to inhibit IL-1 induction of IL-8 in U937 cells.\nDue to buffer effects in the assay, at the highest protein concentration used (100 μg/mL) IL-8 production increases instead of further decreasing. Based on several in vitro efficacy assays as well as Biacore assays, it was determined that TripT IL1Ra was the best compound based on blocking and binding efficacy as well as production yields.\nThree of the trimeric IL1Ra polypeptides described in the previous examples were chosen for pharmacokinetic analysis. The differences in the constructs were in the N-terminus of the trimerization domain: full length (FL), first nine amino acids truncated (I10) and the first 16 amino acids truncated (V17). The 10 construct represents a naturally occurring deletion variant of the trimerization domain and lacks the O-glycosylation site at Thr 4. The V17 derivative represents a deletion of the first exon encoding the trimerization domain and lacks a characterized heparin binding site. This site is also partially removed in the I10 construct."}, "[3]": {"test_system": "STZ-induced diabetes", "assay": "Streptozocin (STZ)-induced diabetes model", "type": "in vivo, C57BL/6J male mice", "conditions": "for reduction of blood glucose levels: daily i.p. dosing at both 100 and 30 mg/kg, FIG. 12", "method": "STZ (Sigma Aldrich) was administered once daily for five successive days at 50 mg/kg i.p. to fasted C57BL/6J male mice. The mice gradually developed higher levels of blood glucose from Day 1 to Day 4. The levels rose from […] during the STZ induction period. Five days (Day 4) after the last STZ dosing, the mice were randomly distributed into 10 treatment groups each containing 10 mice in good condition. Treatment started on this day, before onset of diabetes and continued beyond the onset.\nThe study period was 28 days and the mice were weighed once weekly during the treatment period. Blood glucose levels were measured every other day during the study period in order to monitor development of diabetes. A droplet of whole blood was collected by tail vein bleeding and placed on an Ascensia ELITE® blood glucose test strip and analyzed with an Ascensia ELITE® blood glucose meter (Bayer). The values were recorded, and x-fold increase in any given group compared to levels at treatment initiation was calculated. Clinical symptoms were observed daily or as appropriate in groups where adverse symptoms occurred."}, "[4]": {"conditions": "in vivo; cited from earlier work"}, "[5]": {"test_system": "type II collagen arthritis", "type": "in vivo, Female Lewis rats", "method": "Female Lewis rats with 4-day established type II collagen arthritis were treated subcutaneously (SC), daily (QD) on arthritis days 1-3 with Vehicle (10 mM phosphate buffer pH 7.4), or equimolar amounts of IL-1ra administering either monomeric IL-1ra (100 mg/kg KINERET®), or trimerized IL1ra (120 mg/kg Met-I10-TripT-IL1ra, or 120 mg/kg GG-V17-TripT-IL1ra). In order to have only one set of controls, all rats in the QD groups were dosed with the respective vehicle (10 mM phosphate buffer pH 7.4, or sodium citrate buffer pH 6.5 for KINERET®) at the 2nd and 3rd dosings to keep manipulations constant. Animals were terminated on arthritis day 4. Efficacy evaluation was based on ankle caliper measurements, expressed as area under the curve (AUC), terminal hind paw weights and body weights (Bendele et al 2000, Arthritis+Rheumatism 43:2648-2659). All animals survived to study termination. […] No vocalization occurred with any other injections.\nAnimals (8/group for arthritis, 4/group for normal), housed 4/cage, were anesthetized with Isoflurane and received subcutaneous/intradermal (SC/ID) injections with 300 μl of Freund's Incomplete Adjuvant (Difco, Detroit, Mich.) containing 2 mg/ml bovine type II collagen (Elastin Products, Owensville, Mo.) at the base of the tail and 2 sites on the back on days 0 and 6. Dosing by subcutaneous route (QD at 24 hour intervals) was initiated on arthritis day 1 and continued through day 3.\nRats were weighed on days 0-4 of arthritis, and caliper measurements of ankles were taken every day beginning on day 0 of arthritis (study day 9). After final body weight measurement, animals were euthanized, and hind paws were transected at the level of the medial and lateral malleolus and weighed (paired)."}, "[6]": {"conditions": "SC QD days 1-3, 100 mg/kg KINERET, 120 mg/kg trimerized IL1ra, vs vehicle treated disease controls"}}}
{"substance": "FL IL1Ra: trimeric IL1Ra polypeptide with full length (FL) trimerization domain, TripT fusion to IL-1Ra (SEQ ID NO: 24)", "values": [{"measurement": "AUC", "setting": "[1]", "result": 809.292, "unit": "µg·h/mL"}, {"measurement": "AUC protein/AUC KINERET ®", "setting": "[1]", "result": 1.89}, {"measurement": "Half life", "setting": "[1]", "result": 20, "unit": "min"}, {"measurement": "Half life protein/Half life KINERET ®", "setting": "[1]", "result": 17}, {"measurement": "relative increase in AUC compared to KINERET", "setting": "[1]", "result": "two-fold"}, {"measurement": "blocking and binding efficacy", "setting": "[2]", "result": "best compound"}]}
{"substance": "I10 IL1Ra: trimeric IL1Ra polypeptide, first nine amino acids of the trimerization domain truncated (I10), TripT fusion (SEQ ID NO: 28)", "values": [{"measurement": "AUC", "setting": "[1]", "result": 1637.866, "unit": "µg·h/mL"}, {"measurement": "AUC protein/AUC KINERET ®", "setting": "[1]", "result": 3.82}, {"measurement": "Half life", "setting": "[1]", "result": 54, "unit": "min"}, {"measurement": "Half life protein/Half life KINERET ®", "setting": "[1]", "result": 45}, {"measurement": "reduction of blood glucose levels", "setting": "[3]", "result": "marked reduction"}, {"measurement": "blood glucose efficacy relative to daily dosing of 100 mg/kg KINERET", "setting": "[3]; twice weekly i.p. dosing of 100 mg/kg", "result": "equally effective"}]}
{"substance": "KINERET®: monomeric IL-1ra [reference compound]", "values": [{"measurement": "AUC", "setting": "[1]", "result": 428.414, "unit": "µg·h/mL"}, {"measurement": "AUC protein/AUC KINERET ®", "setting": "[1]", "result": 1}, {"measurement": "Half life", "setting": "[1]", "result": 1.2, "unit": "min"}, {"measurement": "Half life protein/Half life KINERET ®", "setting": "[1]", "result": 1}, {"measurement": "half life after i.v. injection", "setting": "[1]", "result": "about 1.2 minutes"}, {"measurement": "half life in humans", "setting": "[4]", "result": "240 to 360", "unit": "min"}, {"measurement": "reduction of blood glucose levels", "setting": "[3]", "result": "marked reduction"}, {"measurement": "Change in body weight increased toward normal", "setting": "[5]; [6]", "result": 54, "unit": "%"}, {"measurement": "Reduction of ankle diameter AUC", "setting": "[5]; [6]", "result": 34, "unit": "%"}, {"measurement": "Reduction of final paw weight", "setting": "[5]; [6]", "result": 61, "unit": "%"}, {"measurement": "vocalization during the injection process (subcutaneous irritation)", "setting": "[5]; rat, in vivo, sc", "result": "vocalized during the injection process"}]}
{"substance": "V17 IL1Ra: trimeric IL1Ra polypeptide, first 16 amino acids of the trimerization domain truncated (V17), TripT fusion (SEQ ID NO: 32)", "values": [{"measurement": "AUC", "setting": "[1]", "result": 2177.781, "unit": "µg·h/mL"}, {"measurement": "AUC protein/AUC KINERET ®", "setting": "[1]", "result": 5.08}, {"measurement": "Half life", "setting": "[1]", "result": 69, "unit": "min"}, {"measurement": "Half life protein/Half life KINERET ®", "setting": "[1]", "result": 58}, {"measurement": "relative increase in AUC compared to KINERET", "setting": "[1]", "result": "five-fold"}, {"measurement": "half life after i.v. injection", "setting": "[1]", "result": "about 69 minutes"}]}
